Measured values as given in PMC11077089, “Molecular basis of A. thaliana KEOPS complex in biosynthesizing tRNA t6A”.

Experiments:
Experiment in all cases: EMSA; MST: 20 mM PBS pH 7.5, 300 mM NaCl, 0.05% Tween 20, 25 C, 50 nM RNA; EMSA: 20 mM Tris-HCl pH 7.5, 300 mM NaCl, 5 mM b-mercaptoethanol, 20% glycerol, agarose gel in Tris-glycine pH 8.0 (8.5 for FAM-RNA), 4 C
[1] = molecular target: T1, KAE1;BUD32 I47K;CGI121;PCC1 (Arabidopsis thaliana;Arabidopsis …, UniProt O49653;Q94K14;Q6NMZ4;Q8GWD7 1-353;1-226;1-172;1-96, |I47K||); conditions: protein: recombinant;recombinant;recombinant;recombinant; tags: none (6His on partner PCC1);;6His (C-term);6His (C-term); chain copies: 2;2;2;2; label: 5' 6-FAM; tRNA cloverleaf
T1 sequence 1: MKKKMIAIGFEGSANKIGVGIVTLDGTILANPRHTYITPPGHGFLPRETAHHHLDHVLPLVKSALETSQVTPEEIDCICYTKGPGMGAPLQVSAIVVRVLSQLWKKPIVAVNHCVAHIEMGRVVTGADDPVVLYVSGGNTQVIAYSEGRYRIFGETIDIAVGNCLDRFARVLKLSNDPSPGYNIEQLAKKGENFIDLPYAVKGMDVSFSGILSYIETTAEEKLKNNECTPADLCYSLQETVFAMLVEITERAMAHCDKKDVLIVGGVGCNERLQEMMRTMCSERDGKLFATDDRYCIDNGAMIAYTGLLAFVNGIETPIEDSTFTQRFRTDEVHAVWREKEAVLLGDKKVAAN
T1 sequence 2: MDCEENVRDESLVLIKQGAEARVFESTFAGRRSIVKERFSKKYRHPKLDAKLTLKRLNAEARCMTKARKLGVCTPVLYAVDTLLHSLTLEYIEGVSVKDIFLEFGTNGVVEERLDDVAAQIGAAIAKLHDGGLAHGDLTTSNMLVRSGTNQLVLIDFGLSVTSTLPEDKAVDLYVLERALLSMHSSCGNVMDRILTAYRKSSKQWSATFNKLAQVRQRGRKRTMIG
T1 sequence 3: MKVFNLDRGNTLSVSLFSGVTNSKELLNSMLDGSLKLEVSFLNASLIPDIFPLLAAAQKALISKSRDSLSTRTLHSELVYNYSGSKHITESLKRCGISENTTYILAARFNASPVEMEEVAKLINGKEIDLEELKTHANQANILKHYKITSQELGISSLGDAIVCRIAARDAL
T1 sequence 4: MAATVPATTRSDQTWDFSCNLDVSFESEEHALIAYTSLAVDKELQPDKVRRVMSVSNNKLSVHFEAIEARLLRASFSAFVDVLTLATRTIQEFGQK

KAE1;PCC1 = molecular target: T2, KAE1;PCC1 (Arabidopsis thaliana;Arabidopsis …, UniProt O49653;Q8GWD7 1-353;1-96, |); conditions: protein: recombinant;recombinant; tags: none (6His on partner PCC1);6His (C-term); chain copies: 2;2; label: 5' 6-FAM; tRNA cloverleaf
T2 sequence 1: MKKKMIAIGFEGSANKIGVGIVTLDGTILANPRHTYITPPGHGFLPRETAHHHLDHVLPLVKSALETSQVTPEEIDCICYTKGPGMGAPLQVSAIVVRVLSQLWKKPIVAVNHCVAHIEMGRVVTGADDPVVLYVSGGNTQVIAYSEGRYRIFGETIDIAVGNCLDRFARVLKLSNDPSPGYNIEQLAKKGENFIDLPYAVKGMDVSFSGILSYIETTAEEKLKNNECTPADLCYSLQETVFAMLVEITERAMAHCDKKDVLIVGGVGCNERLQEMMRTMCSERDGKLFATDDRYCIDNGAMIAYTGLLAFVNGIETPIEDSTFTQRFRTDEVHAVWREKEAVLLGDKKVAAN
T2 sequence 2: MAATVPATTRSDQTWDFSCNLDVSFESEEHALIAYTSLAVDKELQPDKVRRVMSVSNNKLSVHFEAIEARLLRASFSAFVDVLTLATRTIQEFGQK

[2] = molecular target: T3, KAE1;BUD32 R220stop;CGI121;PCC1 (Arabidopsis thaliana;Arabidopsis …, UniProt O49653;Q94K14;Q6NMZ4;Q8GWD7 1-353;1-219;1-172;1-96, |del220-226||); conditions: protein: recombinant;recombinant;recombinant;recombinant; tags: none (6His on partner PCC1);;6His (C-term);6His (C-term); chain copies: 2;2;2;2; label: 5' 6-FAM; tRNA cloverleaf
T3 sequence 1: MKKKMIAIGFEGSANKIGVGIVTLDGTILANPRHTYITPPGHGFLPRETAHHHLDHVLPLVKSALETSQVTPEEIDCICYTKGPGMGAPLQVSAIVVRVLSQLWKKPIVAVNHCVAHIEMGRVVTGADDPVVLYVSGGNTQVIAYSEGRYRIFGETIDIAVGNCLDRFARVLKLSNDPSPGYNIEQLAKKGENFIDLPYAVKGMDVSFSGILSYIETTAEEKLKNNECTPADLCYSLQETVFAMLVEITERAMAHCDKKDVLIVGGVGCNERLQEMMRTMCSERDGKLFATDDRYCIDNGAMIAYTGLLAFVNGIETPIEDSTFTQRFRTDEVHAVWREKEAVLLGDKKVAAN
T3 sequence 2: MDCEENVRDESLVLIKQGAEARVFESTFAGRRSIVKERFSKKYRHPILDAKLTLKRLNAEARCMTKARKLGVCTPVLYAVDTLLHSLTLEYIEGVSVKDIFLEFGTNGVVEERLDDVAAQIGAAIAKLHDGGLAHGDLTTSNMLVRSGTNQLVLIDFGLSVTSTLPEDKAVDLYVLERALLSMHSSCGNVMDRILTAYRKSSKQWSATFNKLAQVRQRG
T3 sequence 3: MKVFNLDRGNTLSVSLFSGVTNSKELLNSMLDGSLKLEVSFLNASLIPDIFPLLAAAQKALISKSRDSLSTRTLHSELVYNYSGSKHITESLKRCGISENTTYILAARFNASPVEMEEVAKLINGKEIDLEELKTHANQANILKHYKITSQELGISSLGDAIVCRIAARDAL
T3 sequence 4: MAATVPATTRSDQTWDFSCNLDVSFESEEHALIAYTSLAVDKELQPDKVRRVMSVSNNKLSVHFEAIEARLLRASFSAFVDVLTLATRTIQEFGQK

[3] = molecular target: T4, KAE1;BUD32 L165K;CGI121;PCC1 (Arabidopsis thaliana;Arabidopsis …, UniProt O49653;Q94K14;Q6NMZ4;Q8GWD7 1-353;1-226;1-172;1-96, |L165K||); conditions: protein: recombinant;recombinant;recombinant;recombinant; tags: none (6His on partner PCC1);;6His (C-term);6His (C-term); chain copies: 2;2;2;2; label: 5' 6-FAM; tRNA cloverleaf
T4 sequence 1: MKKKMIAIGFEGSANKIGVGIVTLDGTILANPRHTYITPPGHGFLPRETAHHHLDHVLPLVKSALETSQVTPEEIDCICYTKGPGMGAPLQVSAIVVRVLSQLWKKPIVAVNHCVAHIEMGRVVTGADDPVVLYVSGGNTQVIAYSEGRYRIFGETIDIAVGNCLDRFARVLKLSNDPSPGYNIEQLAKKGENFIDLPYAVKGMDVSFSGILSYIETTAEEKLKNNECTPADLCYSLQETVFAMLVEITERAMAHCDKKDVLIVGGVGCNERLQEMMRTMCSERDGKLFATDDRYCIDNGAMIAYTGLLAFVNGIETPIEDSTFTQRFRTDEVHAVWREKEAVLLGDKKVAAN
T4 sequence 2: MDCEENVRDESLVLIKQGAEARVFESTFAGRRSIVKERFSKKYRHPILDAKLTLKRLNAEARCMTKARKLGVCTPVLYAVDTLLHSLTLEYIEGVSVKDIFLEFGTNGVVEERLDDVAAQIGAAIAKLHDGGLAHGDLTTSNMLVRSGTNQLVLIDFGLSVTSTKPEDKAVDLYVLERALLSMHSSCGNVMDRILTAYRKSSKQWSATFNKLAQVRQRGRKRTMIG
T4 sequence 3: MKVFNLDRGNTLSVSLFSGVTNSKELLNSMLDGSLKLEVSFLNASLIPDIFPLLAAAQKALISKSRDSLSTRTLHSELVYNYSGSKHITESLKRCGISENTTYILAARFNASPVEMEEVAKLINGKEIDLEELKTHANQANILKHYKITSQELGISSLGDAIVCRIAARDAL
T4 sequence 4: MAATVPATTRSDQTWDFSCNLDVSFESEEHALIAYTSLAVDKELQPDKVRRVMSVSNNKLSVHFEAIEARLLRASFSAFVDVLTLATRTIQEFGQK

B1: 5'-6FAM-tRNAArgCCU (structured_RNA)
RNA: GCGCCUGUAGCUCAGUGGAUAGAGCGUCUGUUUCCUAAGCAGAAGGUCGUAGGUUCGACCCCUACCUGGCGCGCCA
binding result [1]: binds | binding result (KAE1;PCC1): no binding | binding result [2]: binds | binding result [3]: binds
